One experiment has as its target T1, HGFA (Homo sapiens, UniProt Q04756).
T1 construct: His6 behind an AAA linker) (C); made in house; host or cells: baculovirus - insect cell expression system
T1 sequence (Q04756 373-655): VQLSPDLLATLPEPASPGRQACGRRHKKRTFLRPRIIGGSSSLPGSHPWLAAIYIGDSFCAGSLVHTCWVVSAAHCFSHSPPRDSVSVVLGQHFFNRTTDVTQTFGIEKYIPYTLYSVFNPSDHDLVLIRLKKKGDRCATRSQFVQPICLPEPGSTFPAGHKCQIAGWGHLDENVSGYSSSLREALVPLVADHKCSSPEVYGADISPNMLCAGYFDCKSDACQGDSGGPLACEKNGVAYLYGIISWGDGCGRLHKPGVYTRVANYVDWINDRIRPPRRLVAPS
As to the kind of experiment: Ab40 binding to HGFA in the presence of active site inhibitors (surface plasmon resonance). The note with it: active site inhibitor present; result in words. An excerpt: FIG. 3: Effects of active site inhibitors on antibody binding to HGFA. (a-b, e-f) Surface plasmon resonance (BIAcore) measurements of binding to immobilized antibodies, Ab40 (a-b) or Ab40.ΔTrp (e-f), after co-injection of HGFA (a,e) or HGFA-KQLR (b, f) complex (“KQLR” disclosed as SEQ ID NO: 21). (c) Competition binding (BIAcore) of HGFA to immobilized Ab40 in presence of different concentrations of KD1. (d) Competition binding ELISA measuring binding of HGFA to biotinylated KD1 in the presence of increasing antibody concentrations.
Antibody reformatting and determination of dissociation rate constants to HGFA: Anti-HGFA Fabs were reformatted into human IgG1 by cloning the VL and VH regions of individual clones into LPG3 and LPG4 vector, respectively (Liang et al, 2007). The full-length antibodies were transiently expressed in Chinese Hamster Ovary cells and purified on a protein-A column. […] Association rates (kon) and dissociation rates (koff) were obtained by using a simple one-to-one Langmuir binding model (BIAEvaluation) and the equilibrium dissociation constants (KD) were calculated (koff/kon). […] The values of Req (20-80% of Rmax) were calculated and plotted individually against C (concentration of HGFA or HGFA-KQLR (“KQLR” disclosed as SEQ ID NO: 21)) using BIAEvaluation Software to determine KD at the steady state analysis. […]

In experiment [1] the target is HGFA (Val373-Ser655 plus tag …) (human) (UniProt Q04756). As to the kind of experiment: cell-based or functional assay.
The target is the same in experiment [2]. Put plainly: SPR (BIAcore), IgG captured by anti-human IgG, HGFA injected.
Experiment [3] deals with T2, HGFA (Val373-Ser655 plus tag …) (human, UniProt Q04756 373-655).
T2 sequence: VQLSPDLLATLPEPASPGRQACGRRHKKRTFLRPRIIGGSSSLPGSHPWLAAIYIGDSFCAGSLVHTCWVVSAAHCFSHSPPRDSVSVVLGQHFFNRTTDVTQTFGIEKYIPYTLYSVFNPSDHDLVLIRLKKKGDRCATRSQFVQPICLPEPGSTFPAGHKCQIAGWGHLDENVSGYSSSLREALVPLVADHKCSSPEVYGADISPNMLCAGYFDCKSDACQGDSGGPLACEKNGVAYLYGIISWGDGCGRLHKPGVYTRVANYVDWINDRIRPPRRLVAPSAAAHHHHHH
As to the kind of experiment: cell-based or functional assay.

Experiment [4] concerns the target T2, HGFA (Val373-Ser655 plus tag …). As to the kind of experiment: SPR (BIAcore).
Experiment [5] has as its target T3, HGFA-KQLR complex (human, UniProt Q04756 373-655, N-terminal acetyl; C-terminal chloromethyl ketone, reacted with Ser195 and His57 of HGFA; Ser195 and His57 (chymotrypsinogen numbering) covalently linked to Ac-KQLR-cmk).
T3 construct: Made by incubating HGFA with a two fold molar excess of Ac-KQLR-cmk for 2 hours, then size exclusion chromatography
Put plainly: SPR (BIAcore).

In experiment [6] the target is T3, HGFA-KQLR complex. Put plainly: SPR (BIAcore), IgG captured by anti-human IgG, HGFA-KQLR complex injected.
The target in experiment [7] is T2, HGFA (Val373-Ser655 plus tag …). Put plainly: competition ELISA: plate coated with HGFA, incubated with increasing Ab40, then 1 nM biotinylated KD1 (blocked ligand) detected with streptavidin-HRP.
The target is the same in experiment [8]. Put plainly: SPR (BIAcore), IgG captured by anti-human IgG, HGFA injected.
For experiment [9] the target is unchanged. As to the kind of experiment: SPR (BIAcore), steady state affinity, IgG captured, HGFA injected.
Experiment [10] deals with T3, HGFA-KQLR complex. Put plainly: SPR (BIAcore), steady state affinity, IgG captured, HGFA-KQLR complex injected.

* marks the point of attachment. CH2Cl = ClC*

On to “Ac-KQLR-chloromethyl ketone (Ac-KQLR-CH2Cl; SMILES CC(=O)N[C@@H](CCCCN)C(=O)N[C@@H](CCC(N)=O)C(=O)N[C@@H](CC(C)C)C(=O)N[C@@H](CCCNC(=N)N)C(=O)CCl) [Ac-KQLR-cmk]”, for which, in the experiment with HGFA, the “interference with binding of Ab40 to HGFA” value is reported as “interfered”.

On to `N=C(N)c1ccccc1` [Benzamidine], for which, on HGFA, the “interference with binding of Ab40 to HGFA” value is “did not interfere”.

B1: Ab39 (antibody, from a related filing, human IgG1, V domains shown)
VH: EVQLVESGGGLVQPGGSLRLSCAASGFTFNGTYIHWVRQAPGKGLEWVGGIYPAGGATYYADSVKGRFTISRDNSKNTLYLQMNSLRAEDTAVYYCAKWWAWPAFDYWGQGTLVTVSS
VL: DIQMTQSPSSLSASVGDRVTITCRASQDVSTAVAWYQQKPGKAPKLLIYSASFLYSGVPSRFSGSGSGTDFTLTISSLQPEDFATYYCQQSYTTPPTFGQGTKVEIKR
Turning to B1, in [1], the Km^app of S-2266 hydrolysis at 1 µM Ab39 (control Km=0.25 mM) was 910 µM and the Vmax^app of S-2266 hydrolysis at 1 µM Ab39 (control Vmax=0.99 µM pNA/min) is 0.97 µM pNA/min. Further, in [2], the Kd came to 10.3 nM, the koff was 0.0053 s⁻¹ and the kon is 520000 M⁻¹ s⁻¹.

B2: Ab40 (antibody, V domains shown)
VH: EVQLVESGGGLVQPGGSLRLSCAASGFTINGTYIHWVRQAPGKGLEWVGGIYPAGGATYYADSVKGRFTISADTSKNTAYLQMNSLRAEDTAVYYCAKWWAWPAFDYWGQGTLVTVSS
VL: DIQMTQSPSSLSASVGDRVTITCRASQDVSTAVAWYQQKPGKAPKLLIYSASFLYSGVPSRFSGSGSGTDFTLTISSLQPEDFATYYCQQSNRAPATFGQGTKVEIKR
Consider B2, for which, in [3], the “IC50 (read off the curve), HGFA fractional activity vi/vo on S-2266” value was approximately 8 nM. Besides, the “fold improvement in binding affinity over Ab39” value in experiment [4] is 64 fold. Besides, the “fold decrease in affinity compared to HGFA” value in the experiment with HGFA-KQLR complex [5] is 8 fold. In the experiment with HGFA-KQLR complex [6], this molecule came in with a Kd of 1.35 nM, a koff of 0.00043 s⁻¹ and a kon of 320000 M⁻¹ s⁻¹. The “IC50 (read off the curve)” value in [7] is approximately 1 nM. In [8], the Kd worked out at 0.16 nM, the koff was found to be 0.000175 s⁻¹ and the kon amounted to 1.08e+06 M⁻¹ s⁻¹.

B3: Ab40.ΔTrp (antibody, V domains shown)
VH: EVQLVESGGGLVQPGGSLRLSCAASGFTINGTYIHWVRQAPGKGLEWVGGIYPAGGATYYADSVKGRFTISADTSKNTAYLQMNSLRAEDTAVYYCAKWAWPAFDYWGQGTLVTVSS
VL: DIQMTQSPSSLSASVGDRVTITCRASQDVSTAVAWYQQKPGKAPKLLIYSASFLYSGVPSRFSGSGSGTDFTLTISSLQPEDFATYYCQQSNRAPATFGQGTKVEIKR
As for B3, the Kd amounted to 150 nM in experiment [9] and 161 nM in the experiment with HGFA-KQLR complex [10].

The record behind these values is patent US20110206704A1, “Methods and compositions for modulating hepatocyte growth factor activator” (Genentech, Inc., priority 2009, published 2011).
